Reference: PMC3636572

Columns and labels:
porcine thrombin = porcine thrombin (pig, UniProt Q19AZ8;Q19AZ8 316-364;365-623); assay: filter binding
beta-thrombin = beta-thrombin (UniProt P00734;P00734;P00734 328-363;364-425;437-622); assay: filter binding
prothrombin [1] = target: T1, prothrombin (Homo sapiens, UniProt P00734 44-622); assay: filter binding
prothrombin [2] = target: T1, prothrombin; assay: SPR

B1: RNAR9D-14T (XNA)
RNA: GGCGGUCGAUCACACAGUUCAAACGUAAUAAGCCAAUGUACGAGGCAGACGACUCGCC
modifications: 2'-fluoro on all C and U; purines 2'-OH
- Kd (porcine thrombin): 5 nM
- Kd (beta-thrombin): 20 nM
- Kd (prothrombin [1]): 10 nM

B2: biotin-RNAR9D-14T (XNA)
RNA: B1 RNA
modifications: 2'-fluoro on all C and U; purines 2'-OH
- Kd (prothrombin [2]): 1.4 nM
